Laboratory results published in patent publication US20240327538A1 (AMUNIX PHARMACEUTICALS, published 2024).

Experiments:
human CD3 epsilon [1] = target: T1, human CD3 epsilon (human, UniProt P07766 23-126, limits assumed); assay: Octet
T1 construct: also called huCD3e

[2] = target: T2, cynomolgus monkey CD3 epsilon (cynomolgus monkey, UniProt Q95LI5 22-117, limits assumed); assay: Octet
T2 construct: also called cyCD3e
T2 sequence (looked up): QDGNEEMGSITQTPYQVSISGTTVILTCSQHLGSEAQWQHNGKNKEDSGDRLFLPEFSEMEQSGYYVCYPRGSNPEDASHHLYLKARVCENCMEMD

human PSMA [3] = target: T3, human PSMA (human, UniProt Q04609 44-750, limits assumed); assay: Octet
T3 construct: also called huPSMA

cynomolgus monkey PSMA [4] = target: T4, cynomolgus monkey PSMA (cynomolgus monkey, UniProt A0A2K5VNZ0 44-750); assay: Octet
T4 construct: also called cyPSMA; Cyno PSMA

human PSMA [5] = target: T3, human PSMA; assay: Biacore
cynomolgus monkey PSMA [6] = target: T4, cynomolgus monkey PSMA; assay: Biacore
human CD3 epsilon [7] = target: T1, human CD3 epsilon; assay: Biacore
[8] = target: T2, cynomolgus monkey CD3 epsilon; assay: Biacore
human PSMA-Fc [9] = target: T5, human PSMA-Fc (human, UniProt Q04609 44-750, limits assumed); assay: Octet, human PSMA-Fc
T5 construct: also called Human PSMA-Fc fusions; not shown: Fc part
Method: Binding affinity of select PSMA PTE variants was tested by Octet.

[10] = target: T6, cyno PSMA on PSMA-transfected CHO cells (cynomolgus monkey, UniProt A0A2K5VNZ0 1-750); assay: binding to PSMA-transfected CHO cells, labeled secondary antibody to the anti-CD3 scFv
T6 construct: whole, on cells; also called Cyno PSMA CHO
Method: (§1) Surface binding was detected with a labeled secondary antibody specific for the anti-CD3 scFv.
(§2) The binding affinities to both human and cyno PSMA and human and cyno CD3 epsilon were determined.

[11] = target: T7, human PSMA on PSMA-transfected CHO cells (human, UniProt Q04609 1-750); assay: as above
T7 construct: whole, on cells; also called Hu PSMA CHO
Method: as §1, §2

human PSMA-Fc [12] = target: T5, human PSMA-Fc; assay: linker length / domain swap comparison
human PSMA-Fc [13] = target: T5, human PSMA-Fc; assay: Octet
human PSMA-Fc [14] = target: T5, human PSMA-Fc; assay: Octet, human PSMA-Fc, 300-3.6 nM PSMA-uTCE
human PSMA [15] = target: T3, human PSMA; assay: BLI or SPR
Description: (§3) The values are reported below in Table 19 for PSMA and Table 20 for CD3.

cynomolgus monkey PSMA [16] = target: T4, cynomolgus monkey PSMA; assay: BLI or SPR
Description: as §3

[17] = target: T8, PSMA on human prostate cancer cell lines (LNCaP, 22Rv1) (human, UniProt Q04609 1-750); assay: cell-based or functional assay
[18] = target: T8, PSMA on human prostate cancer cell …; assay: cell-based or functional assay; remark: listed apart in the source
Human CD3 = target: T9, Human CD3 (human, UniProt P07766 23-126); assay: BLI or SPR
T9 construct: not shown: A CD3 delta partner cannot be excluded

Cyno CD3 = target: T10, Cyno CD3 (cynomolgus monkey, UniProt Q95LI5 22-117); assay: BLI or SPR
T10 construct: also called cynomolgus monkey CD3; not shown: A CD3 delta partner cannot be excluded
T10 sequence: T2 sequence (looked up)

human PSMA [19] = target: T3, human PSMA; assay: Pool 2 binding screen

T9 sequence (P07766 23-126 limits assumed): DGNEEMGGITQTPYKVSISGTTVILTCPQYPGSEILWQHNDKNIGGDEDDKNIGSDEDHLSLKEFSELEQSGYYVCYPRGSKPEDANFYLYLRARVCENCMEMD
T1 sequence (P07766 23-126 limits assumed): as above
T5 sequence (Q04609 44-750 limits assumed): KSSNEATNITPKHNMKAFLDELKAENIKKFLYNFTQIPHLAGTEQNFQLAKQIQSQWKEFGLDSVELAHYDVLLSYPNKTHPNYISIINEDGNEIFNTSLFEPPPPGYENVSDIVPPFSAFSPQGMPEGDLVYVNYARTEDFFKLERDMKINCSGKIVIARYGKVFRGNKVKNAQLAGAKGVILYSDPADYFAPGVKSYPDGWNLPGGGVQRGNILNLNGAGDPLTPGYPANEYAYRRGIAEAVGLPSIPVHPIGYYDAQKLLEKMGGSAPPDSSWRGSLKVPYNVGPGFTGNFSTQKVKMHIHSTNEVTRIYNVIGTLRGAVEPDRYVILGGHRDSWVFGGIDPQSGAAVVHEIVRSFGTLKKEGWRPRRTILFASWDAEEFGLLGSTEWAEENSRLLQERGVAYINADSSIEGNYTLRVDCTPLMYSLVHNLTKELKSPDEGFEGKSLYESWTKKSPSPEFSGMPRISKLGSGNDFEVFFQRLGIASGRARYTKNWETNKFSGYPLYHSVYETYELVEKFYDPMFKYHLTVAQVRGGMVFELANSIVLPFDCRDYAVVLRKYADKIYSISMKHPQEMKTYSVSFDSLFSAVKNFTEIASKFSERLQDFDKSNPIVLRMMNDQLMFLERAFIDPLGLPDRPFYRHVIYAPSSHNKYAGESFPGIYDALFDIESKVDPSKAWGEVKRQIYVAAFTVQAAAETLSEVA
T3 sequence (Q04609 44-750 limits assumed): as above
T8 sequence (Q04609 whole entry): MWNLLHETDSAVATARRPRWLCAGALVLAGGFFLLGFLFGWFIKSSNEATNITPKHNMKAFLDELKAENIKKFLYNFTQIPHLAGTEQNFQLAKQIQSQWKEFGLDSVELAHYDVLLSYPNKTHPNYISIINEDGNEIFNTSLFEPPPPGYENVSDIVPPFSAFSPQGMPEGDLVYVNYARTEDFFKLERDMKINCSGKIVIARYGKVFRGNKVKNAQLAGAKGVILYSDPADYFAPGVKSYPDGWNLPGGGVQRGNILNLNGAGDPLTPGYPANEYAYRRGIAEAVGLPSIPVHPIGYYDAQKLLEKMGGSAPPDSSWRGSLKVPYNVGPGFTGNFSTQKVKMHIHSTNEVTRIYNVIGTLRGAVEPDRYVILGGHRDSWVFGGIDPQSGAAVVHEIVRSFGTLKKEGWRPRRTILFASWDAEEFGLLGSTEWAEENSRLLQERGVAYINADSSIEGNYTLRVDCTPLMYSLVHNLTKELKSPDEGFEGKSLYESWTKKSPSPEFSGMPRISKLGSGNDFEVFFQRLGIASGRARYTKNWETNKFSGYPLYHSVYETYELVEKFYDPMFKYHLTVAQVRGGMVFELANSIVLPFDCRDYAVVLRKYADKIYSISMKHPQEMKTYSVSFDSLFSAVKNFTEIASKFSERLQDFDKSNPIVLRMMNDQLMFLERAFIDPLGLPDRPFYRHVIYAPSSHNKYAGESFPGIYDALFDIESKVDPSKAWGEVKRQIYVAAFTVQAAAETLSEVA
T7 sequence (Q04609 whole entry): as above

B1: uTCE from AC3928 (bispecific antibody)
chain: LTGPGTSESATPESQVQLVESGGGVVQPGRSLRLSCAASGRTFGIYVWGWFRQAPGKEREFVGAMSWSGSNRKVSDSVKGRFTISRDNSKNTLYLQMNSLRAEDTAVYYCAASNKEYGRTWYDFNESDYWGQGTQVTVSSGGGGSGGGSELVVTQEPSLTVSPGGTVTLTCRSSNGAVTSSNYANWVQQKPGQAPRGLIGGTNKRAPGTPARFSGSLLGGKAALTLSGVQPEDEAVYYCALWYPNLWVFGGGTKLTVLSESATPESGPGTSPGATPESGPGTSESATPEVQLLESGGGIVQPGGSLKLSCAASGFTFNTYAMNWVRQAPGKGLEWVARIRSKYNNYATYYADSVKDRFTISRDDSKNTVYLQMNNLKTEDTAVYYCVRHENFGNSYVSWFAHWGQGTLVTVSSGTATPESGPGEAGRSASHTPAG
notes: unmasked TCE released from this paTCE; also called PSMA.350-CD3.23 uTCE; AMX500-P6
B1 gave a Kd (human CD3 epsilon [1]) of 43 nM, a Kd [2] of 44.9 nM and a Kd (human PSMA [3]) of 13.2 nM. The Kd (cynomolgus monkey PSMA [4]) was 198 nM, the Kd (human PSMA [5]) was 19 nM and the Kd (cynomolgus monkey PSMA [6]) was 354 nM. The Kd (human CD3 epsilon [7]) was 27.3 nM and the Kd [8] was 26.6 nM.

B2: uTCE from AC3934 (bispecific antibody)
chain: LTGPGTSESATPESQVQLVESGGGVVQPGRSLRLSCAASGRTFGIYVWGWVRQAPGKEREFVGAISWSGSNRKVSDSVKGRFTISRDNSKNTLYLQMNSLRAEDTAVYYCAASNKLYGRTWYDFNESDYWGQGTQVTVSSGGGGSGGGSELVVTQEPSLTVSPGGTVTLTCRSSNGAVTSSNYANWVQQKPGQAPRGLIGGTNKRAPGTPARFSGSLLGGKAALTLSGVQPEDEAVYYCALWYPNLWVFGGGTKLTVLSESATPESGPGTSPGATPESGPGTSESATPEVQLVESGGGIVQPGGSLRLSCAASGFTFSTYAMNWVRQAPGKGLEWVGRIRTKRNNYATYYADSVKGRFTISRDDSKNTVYLQMNSLKTEDTAVYYCVRHENFGNSYVSWFAHWGQGTLVTVSSGTATPESGPGEAGRSASHTPAG
notes: unmasked TCE released from this paTCE; also called PSMA.262-CD3.228 uTCE
For B2, the Kd (human CD3 epsilon [1]) was 26.6 nM, the Kd [2] was 33.7 nM and the Kd (human PSMA [3]) was 1.6 nM. The Kd (cynomolgus monkey PSMA [4]) was 13.1 nM, the Kd (human PSMA [5]) was 0.5 nM and the Kd (cynomolgus monkey PSMA [6]) was 13 nM. For the same binder, the Kd (human CD3 epsilon [7]) was 9.83 nM and the Kd [8] was 10.4 nM.

B3: uTCE from AC3092 (bispecific antibody)
chain: LTGPATSGSETPGTQVQLVESGGGVVQPGRSLRLSCAASGRTFGIYVMGWVRQAPGKEREFVAAISWSGSNRLVSDSVKGRFTISRDNSKNTLYLQMNSLRAEDTAVYYCAASNRLYGRTWYDFNESDYWGQGTQVTVSSGGGGSGGGSELVVTQEPSLTVSPGGTVTLTCRSSNGAVTSSNYANWVQQKPGQAPRGLIGGTNKRAPGTPARFSGSLLGGKAALTLSGVQPEDEAVYYCALWYPNLWVFGGGTKLTVLGATPPETGAETESPGETTGGSAESEPPGEGEVQLLESGGGIVQPGGSLKLSCAASGFTFNTYAMNWVRQAPGKGLEWVARIRSKYNNYATYYADSVKDRFTISRDDSKNTVYLQMNNLKTEDTAVYYCVRHENFGNSYVSWFAHWGQGTLVTVSSGTAEAASASGEAGRSANHTPAG
notes: unmasked TCE released from this paTCE; also called AMX-500-P1; PSMA.5-CD3.23 uTCE
In the case of B3, the Kd (human PSMA-Fc [9]) is reported as 3.9 nM, the koff (human PSMA-Fc [9]) is reported as 0.000273 s⁻¹ and the kon (human PSMA-Fc [9]) is reported as 72500 M⁻¹ s⁻¹. For the same binder, the EC50 [10] was 28.8 nM, the EC50 [11] was 9.06 nM and the Kd (human CD3 epsilon [1]) was 71.9 nM. It also gave a Kd [2] of 64.6 nM, a Kd (human PSMA-Fc [12]) of 3.9 nM and a koff (human PSMA-Fc [12]) of 0.00027 s⁻¹. The kon (human PSMA-Fc [12]) was 72000 M⁻¹ s⁻¹, the Kd (human PSMA [3]) was 4.5 nM and the Kd (cynomolgus monkey PSMA [4]) was 41.1 nM. It also gave a Kd (human PSMA-Fc [13]) of 3.9 nM.

B4: uTCE of AC3265 (bispecific antibody, V domains shown)
VH: QVQLVESGGGVVQPGRSLRLSCAASGRTFGIYVMGWYRQAPGKEREFVAAISWSGSNRLVSDSVKGRFTISRDNSKNTLYLQMNSLRAEDTAVYYCAASNRLYGRTWYDFNESDYWGQGTQVTVSS
notes: VHH in uTCE with CD3.23 scFv (VL-VH), 9-residue linker; also called PSMA.55; V37Y
B4 was tested, and the Kd (human PSMA-Fc [14]) was 2.7 nM, the koff (human PSMA-Fc [9]) was 0.00028 s⁻¹ and the kon (human PSMA-Fc [9]) was 104000 M⁻¹ s⁻¹. For the same binder, the Kd (human PSMA-Fc [13]) was 2.7 nM.

B5: AMX-500(uTCE) (bispecific antibody)
chain: GTSESATPESQVQLVESGGGVVQPGRSLRLSCAASGRTFGIYVWGWFRQAPGKEREFVGAMSWSGSNRKVSDSVKGRFTISRDNSKNTLYLQMNSLRAEDTAVYYCAASNKEYGRTWYDFNESDYWGQGTQVTVSSGGGGSGGGSELVVTQEPSLTVSPGGTVTLTCRSSNGAVTSSNYANWVQQKPGQAPRGLIGGTNKRAPGTPARFSGSLLGGKAALTLSGVQPEDEAVYYCALWYPNLWVFGGGTKLTVLSESATPESGPGTSPGATPESGPGTSESATPEVQLVESGGGIVQPGGSLRLSCAASGFTFSTYAMNWVRQAPGKGLEWVGRIRTKRNNYATYYADSVKGRFTISRDDSKNTVYLQMNSLKTEDTAVYYCVRHENFGNSYVSWFAHWGQGTLVTVSSGTATPESGPG
notes: also called uTCE from AC3896; fully unmasked AMX-500; not shown: remnant of cleaved N-terminal release segment RSR-3213; remnant of cleaved C-terminal release segment RSR-3213
Work on B5 yielded a Kd (human PSMA [15]) of 44 nM, a koff (human PSMA [15]) of 0.012 s⁻¹ and a kon (human PSMA [15]) of 270000 M⁻¹ s⁻¹. The Kd (cynomolgus monkey PSMA [16]) was 410 nM, the koff (cynomolgus monkey PSMA [16]) was 0.043 s⁻¹ and the kon (cynomolgus monkey PSMA [16]) was 100000 M⁻¹ s⁻¹. For the same binder, the EC50 [11] was 17.4 nM, the “in vitro cytotoxicity IC50, 22Rv1 cells with PBMC, donor 1” value [17] was 691 pM and the “in vitro cytotoxicity IC50, 22Rv1 cells with PBMC, donor 2” value [17] was 1340 pM. The “in vitro cytotoxicity IC50, 22Rv1 cells with PBMC, donor 3” value [17] was 1300 pM, the Kd (human CD3 epsilon [1]) was 33.2 nM and the Kd [2] was 38.8 nM. The Kd (human PSMA [3]) was 12.1 nM, the Kd (cynomolgus monkey PSMA [4]) was 201 nM and the Kd (human PSMA [5]) was 11.7 nM. The Kd (cynomolgus monkey PSMA [6]) was 230 nM, the “in vitro cytotoxicity IC50, LNCaP PSMA-high cells with PBMC, donor 1” value [18] was 24 pM and the “in vitro cytotoxicity IC50, LNCaP PSMA-high cells with PBMC, donor 2” value [18] was 15 pM. The “in vitro cytotoxicity IC50, LNCaP PSMA-high cells with PBMC, donor 3” value [18] was 16 pM, the “in vitro cytotoxicity IC50, LNCaP PSMA-high cells with PBMC, donor 5” value [18] was 32 pM and the Kd (Human CD3) was 28 nM. The koff (Human CD3) was 0.1 s⁻¹, the kon (Human CD3) was 4e+06 M⁻¹ s⁻¹ and the Kd (Cyno CD3) was 26 nM. It also gave a koff (Cyno CD3) of 0.1 s⁻¹, a kon (Cyno CD3) of 5e+06 M⁻¹ s⁻¹ and a Kd (human CD3 epsilon [7]) of 12.8 nM. It also gave a Kd [8] of 13.7 nM.

B6: uTCE of AC3329 (bispecific antibody)
chain: LTGPRAPPEPEFARATSGSETPGTQVQLVESGGGVVQPGRSLRLSCAASGRTFGIYVMGWVRQAPGKEREFVAAISWSGSNRKVSDSVKGRFTISRDNSKNTLYLQMNSLRAEDTAVYYCAASNRLYGRTWYDFNESDYWGQGTQVTVSSGGGGSGGGSELVVTQEPSLTVSPGGTVTLTCRSSNGAVTSSNYANWVQQKPGQAPRGLIGGTNKRAPGTPARFSGSLLGGKAALTLSGVQPEDEAVYYCALWYPNLWVFGGGTKLTVLGATPPETGAETESPGETTGGSAESEPPGEGEVQLLESGGGIVQPGGSLKLSCAASGFTFNTYAMNWVRQAPGKGLEWVARIRSKYNNYATYYADSVKDRFTISRDDSKNTVYLQMNNLKTEDTAVYYCVRHENFGNSYVSWFAHWGQGTLVTVSSGTAEAASASGEAGRSANHTPAG
notes: unmasked TCE of this paTCE; also called PSMA.119; L59K
B6 showed a Kd (human PSMA-Fc [9]) of 3.2 nM, a koff (human PSMA-Fc [9]) of 0.000248 s⁻¹ and a kon (human PSMA-Fc [9]) of 80000 M⁻¹ s⁻¹. It also gave a Kd (human PSMA [19]) of 4.1 nM and a Kd (human PSMA-Fc [13]) of 3.2 nM.
